Data as given in PMC3024764 (The Journal of Biological Chemistry, 2010).

Target: Pim-1 kinase (SPR analysis) (UniProt P11309 1-313)
Test: SPR

Sequence of Pim-1 kinase (SPR analysis) (P11309 whole entry): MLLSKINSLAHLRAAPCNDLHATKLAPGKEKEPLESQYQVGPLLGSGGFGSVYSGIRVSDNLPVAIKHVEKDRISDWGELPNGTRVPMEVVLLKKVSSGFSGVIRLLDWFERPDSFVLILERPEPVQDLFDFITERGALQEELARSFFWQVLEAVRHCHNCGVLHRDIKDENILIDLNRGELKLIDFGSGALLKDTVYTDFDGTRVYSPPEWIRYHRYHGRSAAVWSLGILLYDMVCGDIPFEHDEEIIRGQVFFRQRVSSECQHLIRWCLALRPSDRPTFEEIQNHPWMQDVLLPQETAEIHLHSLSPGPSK

B1: R8-T198mu peptide (peptide)
peptide: RRRRRRRRKKPGLDRDQT
Q: For B1, which Kd is on record?
A: The Kd was 4.25 µM.
